Assay results taken from the supplement of paper PMC11780869.

Tested on: Bacillus subtilis
Assay: cleaved RNA product abundance (RNA/gDNA barcode ratio) relative to median wild-type variant (ratio to wild type); higher = more accumulation of the downstream cleavage product
Description: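 MPRA in B. subtilis. Mutagenized RNase Y cleavage-site regions (9% mutation rate) were inserted into a barcoded reporter mRNA (truncated aprE or tetM). Cells were grown in LB at 37°C to OD600 0.3. The cleaved RNA isoform was gel-purified and its barcodes counted; the RNA:gDNA barcode ratio was normalised to the median wild-type variant, and the median over barcodes is reported per variant. The printed sequence is the variable window only; the reporter flanks are not printed.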

[1] = experiment (reporter, strain, medium): exp 4a: truncated aprE reporter, strain BJT201 with 2% xylose (RNase J1 expressed), cleavage site: cggR-gapA (positions -7 to +36 mutated)
[2] = experiment (reporter, strain, medium): exp 2b: truncated aprE reporter, strain BJT200, cleavage site: cggR-gapA (positions -7 to +36 mutated)
[3] = experiment (reporter, strain, medium): exp 6: tetM reporter, strain 168, cleavage site: cggR-gapA (positions -7 to +36 mutated)
[4] = experiment (reporter, strain, medium): exp 8a: truncated aprE reporter, strain BJT201 with 2% xylose (RNase J1 expressed), cleavage site: glnRA (positions -5 to +31 mutated)

Sequence | cleaved RNA product abundance [1] | also measured
ACAGACGAAGGAGCCGCAAAGTAGTTATTAAAGGATGAATAATCCCTCAATATAAATATCTCTCACTTATTTAAA | 0.208 | –
ACAGACGAAGGAGCCGCAAAGGAGTTATTAAGAGATGAATAATCCCTCAATATAAATATCTCTCACTTATTTAAA | 0.199 | –
ACAGACGAAGGAGCCGCAAAGAAGTTATTAAGGGATGAATAATCCCACTATATAAATATCTCTCACTTATTTAAA | 0.282 | –
ACAGACGAAGGAGCCGCAAAGAAGTTATTAAGGGATGTATAATCCCTCAATATAAATATCTCTCACTTATTTAAA | 0.978 | cleaved RNA product abundance [2]: 0.943; cleaved RNA product abundance [3]: 0.798
ACAGACGAAGGAGCCGCAAAGAAGTTATTAAGGGATGATTAATCCCTCAATATAAACATCTCTCACTTATTTAAA | 0.559 | –
ACAGACGAAGGAGCCGCAAAGAAGTTATTAAGGGATGAATAATACCTCATTATAAATATCTCTCACTTATTTAAA | 0.117 | –
ACAGACGAAGGAGCCGCAAAGAAGTTATAAAGGGATGACTAATCCCTCAATATAAATATCTCTCACTTATTTAAA | 0.286 | cleaved RNA product abundance [3]: 0.319
CGACATGTCCCGCTTCTTTCATTAATCCGTTAGCACCTGTTTTGCAATATACATTTACCTTTTAAGAGGAGGAAT | – | cleaved RNA product abundance [4]: 0.351
CGACATGTCCCGCTTCTTTCATTACTCCGTTAGCAACTGTTTTGCTATGTACATTTACCTTTTAAGAGGAGGAAT | – | cleaved RNA product abundance [4]: 0.117
ACAGACGAAGGAGCCGCAAAAAAGTTATTAAGGGATGAATAATCCCTGAATATAAATATCTCTCACTTATTTAAA | 0.427 | –
ACAGACGAAGGAGCCGCAAATAAGTTATTAAGGGATGAATAATCCCTCAATATTAATATCTCTCACTTATTTAAA | 0.156 | –
ACAGACGAAGGAGCCGCAAAGAAGTAATTAAGGGATGAATAATCCCTCAATATAAGTATCTCTCACTTATTTAAA | – | cleaved RNA product abundance [2]: 0.119
ACAGACGAAGGAGCCGCAAAAAAGTTATTAAGGGATGAATAATTCCTCTATATAAATATCTCTCACTTATTTAAA | 0.264 | –
ACAGACGAAGGAGCCGCAAAGAAATTATCAAGGGATGAATAATCCCTCAATATAAATATCTCTCACTTATTTAAA | 0.475 | –
CGACATGTCCCGCTTCTTTCATTACTCCGTTAGCAATTGTTTTGCTATATACATTTACCTTTTAAGAGGAGGAAT | – | cleaved RNA product abundance [4]: 1.23
ACAGACGAAGGAGCCGCAAAGAAGTTATTAAGGGATGAATAATCCCTCTAGATAAATATCTCTCACTTATTTAAA | 0.266 | –
ACAGACGAAGGAGCCGCAAAGAAATTATTAAGAGATGAATTATCCCTCAATATAAATATCTCTCACTTATTTAAA | 0.121 | –
ACAGACGAAGGAGCCGCAAAGATGTTATTAAGGGATGAATAATCCCTCAATATAAATAACTCTCACTTATTTAAA | 0.897 | cleaved RNA product abundance [2]: 0.767
ACAGACGAAGGAGCCGCAAAGTAGTTATTAAGGGTTGAATAATCCCTCAATATAAATATCTCTCACTTATTTAAA | 0.364 | –
CGACATGTCCCGCTTCTTTCATTAATCCGTTAGCAACTGTTTTGCTATATCCATTTACCTTTTAAGAGGAGGAAT | – | cleaved RNA product abundance [4]: 0.167

Sequence | cleaved RNA product abundance [1] | also measured
CGACATGTCCCGCTTCTTTCATTAATCCGTTAGCAACTGTTTTGCTATATTCATTTACCTTTTAAGAGGAGGAAT | – | cleaved RNA product abundance [4]: 0.233
ACAGACGAAGGAGCCGCAAAGAGGTTAATAAGGGATGAATAATCCCTCAATATAAATATCTCTCACTTATTTAAA | 0.363 | –
ACAGACGAAGGAGCCGCTAAAAAGTTATTAAGGGATGAATAATCCCTCAATATAAATATCTCTCACTTATTTAAA | 1.1 | –
CGACATGTCCCGCTTCTTTCATTATTCCGTTAGGAACTGTTTTGCTATATACATTTACCTTTTAAGAGGAGGAAT | – | cleaved RNA product abundance [4]: 0.44
ACAGACGAAGGAGCCGCAAAGCAATTATTAAGGGATGAATAATCCCTCAATATAAATATCTCTCACTTATTTAAA | 0.718 | –
CGACATGTCCCGCTTCTTTCATTAATCCCTTAGCAACTGTTTTTCTATATACATTTACCTTTTAAGAGGAGGAAT | – | cleaved RNA product abundance [4]: 0.163
ACAGACGAAGGAGCCGCAAAGAAGTTATTAAGGGATGATTAATCCCTCAAGATAAATATCTCTCACTTATTTAAA | 0.304 | –
ACAGACGAAGGAGCCGCAAAGAAGTTATTAAGGGACGATTAATCCCTCAATATAAATATCTCTCACTTATTTAAA | 0.349 | –
CGACATGTCCCGCTTCTTTCATTAATCCGTTAGCAACTGTTTTACTATATACATTTACGTTTTAAGAGGAGGAAT | – | cleaved RNA product abundance [4]: 0.77
ACAGACGAAGGAGCCGCAAAGAAGTTATATAGGGATGAATAATCCCTCAATATAAATATCTCTCACTTATTTAAA | 0.664 | –
CGACATGTCCCGCTTCTTTCATTAATCCGTTAGCAAATGGTTTGCTATATACATTTACCTTTTAAGAGGAGGAAT | – | cleaved RNA product abundance [4]: 0.732
ACAGACGAAGGAGCCGCAAAGAAGTTATTAAGCGATGAATAATCCCTCAATATAAAAATCTCTCACTTATTTAAA | 0.111 | cleaved RNA product abundance [2]: 0.111
ACAGACGAAGGAGCCGCAAATAAGTTATTAAGGGATGAAAAATCCCTCAATATAAATATCTCTCACTTATTTAAA | 0.841 | cleaved RNA product abundance [2]: 0.805; cleaved RNA product abundance [3]: 0.882
ACAGACGAAGGAGCCGCAAAGAAATTATTAAGCGATGAATAATCCCTCAATATAAATATCTCTCACTTATTTAAA | 0.121 | cleaved RNA product abundance [2]: 0.096
ACAGACGAAGGAGCCGCAAAGAAGTTATTAAGGGATGAATATGCCCTCAATATAAATATCTCTCACTTATTTAAA | 0.363 | –
ACAGACGAAGGAGCCGCAAAGAAATTATTAAGGGATGTATAATCCCTCAATATAAATATCTCTCACTTATTTAAA | 0.789 | cleaved RNA product abundance [2]: 0.711
ACAGACGAAGGAGCCGCAAAGAAGTTATAAAGGGTTGAATAATCCCTCAATATAAATATCTCTCACTTATTTAAA | 0.24 | cleaved RNA product abundance [2]: 0.163
CGACATGTCCCGCTTCTTTCATTAATCCGTTAGCAACTGTTTTGCTATAGACATTTACCTTTTAAGAGGAGGAAT | – | cleaved RNA product abundance [4]: 0.624
ACAGACGAAGGAGCCGCAAAGAAGTTATTAAGGGATGAATAATCCCTCAATCTAAATATCTCTCACTTATTTAAA | 0.138 | cleaved RNA product abundance [2]: 0.126; cleaved RNA product abundance [3]: 0.193
ACAGACGAAGGAGCCGCAAAGAACTTATTATGGGATGAATAATCCCTCAATATAAATATCTCTCACTTATTTAAA | 0.233 | –

Sequence | cleaved RNA product abundance [1] | also measured
CGACATGTCCCGCTTCTTTCATTAATCCGTTAGAAACTGTTTTTCTATATACATTTACCTTTTAAGAGGAGGAAT | – | cleaved RNA product abundance [4]: 0.511
ACAGACGAAGGAGCCGCAAAGAAGTTATTATGGGATGAATAATCCCTCAATATACATATCTCTCACTTATTTAAA | 0.538 | –
ACAGACGAAGGAGCCGCAAAGAAGTTATTAAGGGATGAATAATCCCTGAATATAAACATCTCTCACTTATTTAAA | 0.413 | –
CGACATGTCCCGCTTCTTTCATTAATCCGTTAGCAACTGTTTAGCTATATACATTAACCTTTTAAGAGGAGGAAT | – | cleaved RNA product abundance [4]: 0.618
ACAGACGAAGGAGCCGCAAAGAAGTTATTAAGGGATGAATAATACCTCAATATAGATATCTCTCACTTATTTAAA | 0.147 | –
CGACATGTCCCGCTTCTTTCATTAATCGGTTAGCAACTGTTTTGCTATATATATTTACCTTTTAAGAGGAGGAAT | – | cleaved RNA product abundance [4]: 0.947
ACAGACGAAGGAGCCGCAAAGAAGTTATTAAGGAATGAATAATCCCTCAACATAAATATCTCTCACTTATTTAAA | 0.0941 | –
ACAGACGAAGGAGCCGCAAAGAAGTTAATAAGGGATGAATAACCCCTCAATATAAATATCTCTCACTTATTTAAA | 0.192 | –
ACAGACGAAGGAGCCGCTAAGAAGTTATTAAGGGATGAATAATCCCACAATATAAATATCTCTCACTTATTTAAA | 0.252 | –
CGACATGTCCCGCTTCTTTCATTAATCTGTTAGAAACTGTTTTGCTATATACATTTACCTTTTAAGAGGAGGAAT | – | cleaved RNA product abundance [4]: 0.269
CGACATGTCCCGCTTCTTTCATTAATCCCTTAGCAACTGTTTTCCTATATACATTTACCTTTTAAGAGGAGGAAT | – | cleaved RNA product abundance [4]: 0.214
CGACATGTCCCGCTTCTTTCATTAATCCGTTACCAACTGTTTTGCTATATACGTTTACCTTTTAAGAGGAGGAAT | – | cleaved RNA product abundance [4]: 0.253
ACAGACGAAGGAGCCGCAAAGAAGCTATTAAGGGAGGAATAATCCCTCAATATAAATATCTCTCACTTATTTAAA | 0.24 | cleaved RNA product abundance [2]: 0.287
ACAGACGAAGGAGCCGCAAAGAAGTTATTAAGGGATGAAGAATCCTTCAATATAAATATCTCTCACTTATTTAAA | 0.405 | cleaved RNA product abundance [2]: 0.265
ACAGACGAAGGAGCCGCAAAGAAGTTATTAAGGGATGAATCATCCCTCACTATAAATATCTCTCACTTATTTAAA | 0.22 | –
ACAGACGAAGGAGCCGCAAAGAAGTTATTAAGGGATGAATAATCTCTCATTATAAATATCTCTCACTTATTTAAA | 0.351 | –
CGACATGTCCCGCTTCTTTCATTAATCCGTTAGCAACTGTTTTGCCATATACATTTAACTTTTAAGAGGAGGAAT | – | cleaved RNA product abundance [4]: 0.406
ACAGACGAAGGAGCCGCAAAGAAGTTATTCAGGGATGAATAATCCCTAAATATAAATATCTCTCACTTATTTAAA | 0.713 | cleaved RNA product abundance [2]: 0.695
ACAGACGAAGGAGCCGCAAAGAAGTTATCAAGGGATGAATAATGCCTCAATATAAATATCTCTCACTTATTTAAA | 0.19 | –
